Laboratory results published in PMC5896956, “Small molecule induced oligomerization, clustering and clathrin-independent endocytosis of the dopamine transporter” (eLife, 2018).

How the values were obtained:
[1] = molecular target: the molecule itself; test: SDS-resistant oligomers on SDS-PAGE and western blot; PAE cells stably expressing the tagged transporter, vehicle (DMSO) or 20 µM AIM-100 for 2 hr at 37°C (also after cocaine, dopamine, amphetamine, modafinil, KRCA-0008, CHC siRNA, at 4°C or 20°C); lysis in TGH buffer, Laemmli buffer (2% SDS, 5% β-mercaptoethanol) 5 min at 95°C, 7.5% SDS-PAGE, blot with GFP antibody; oligomers (O) against monomers (M)
[2] = molecular target: the molecule itself; test: SDS-resistant oligomers on SDS-PAGE and western blot; striatal synaptosomes of adult HA-DAT mice in KRH/G, vehicle (DMSO) or 10–20 µM AIM-100 for 2 hr at 37°C; pelleted synaptosomes denatured in Laemmli buffer, SDS-PAGE, blot with DAT antibody

Row | Protein | stoichiometry N [1] | stoichiometry N [2]
1 | DAT fused to yellow fluorescent protein (YFP) (YFP-DAT) (natural protein, human, UniProt Q01959 1-620, looked up, Dopamine transporter (DAT), human; In the FRET experiment one copy carried CFP (CFP-DAT) and the other YFP (YFP-DAT); also called CFP-DAT (the copy with CFP in place of YFP, donor in the FRET experiment); source: PAE cells, stably expressed, in lysate; for FRET in living PAE cells stably co-expressing CFP-DAT and YFP-DAT) MSKSKCSVGLMSSVVAPAKEPNAVGPKEVELILVKEQNGVQLTSSTLTNPRQSPVEAQDRETWGKKIDFLLSVIGFAVDLANVWRFPYLCYKNGGGAFLVPYLLFMVIAGMPLFYMELALGQFNREGAAGVWKICPILKGVGFTVILISLYVGFFYNVIIAWALHYLFSSFTTELPWIHCNNSWNSPNCSDAHPGDSSGDSSGLNDTFGTTPAAEYFERGVLHLHQSHGIDDLGPPRWQLTACLVLVIVLLYFSLWKGVKTSGKVVWITATMPYVVLTALLLRGVTLPGAIDGIRAYLSVDFYRLCEASVWIDAATQVCFSLGVGFGVLIAFSSYNKFTNNCYRDAIVTTSINSLTSFSSGFVVFSFLGYMAQKHSVPIGDVAKDGPGLIFIIYPEAIATLPLSSAWAVVFFIMLLTLGIDSAMGGMESVITGLIDEFQLLHRHRELFTLFIVLATFLLSLFCVTNGGIYVFTLLDHFAAGTSILFGVLIEAIGVAWFYGVGQFSDDIQQMTGQRPSLYWRLCWKLVSPCFLLFVVVVSIVTFRPPHYGAYIFPDWANALGWVIATSSMAMVPIYAAYKFCSLPGSFREKLAYAIAPEKDRELVDRGEVRQFTLRHWLKV | ~3 | –
2 | HA-DAT (endogenous, HA-DAT knock-in mouse) (natural protein, UniProt Q61327 1-619, looked up, it is reached by the HA11 antibody from outside the cell; Detected with the rat DAT antibody; oligomer species at 190 kDa; also called mouse DAT; source: endogenous (knock-in), striatal synaptosomes of adult HA-DAT mice) MSKSKCSVGPMSSVVAPAKEPNAVGPREVELILVKEQNGVQLTNSTLINPPQTPVEVQERETWSKKIDFLLSVIGFAVDLANVWRFPYLCYKNGGGAFLVPYLLFMVIAGMPLFYMELALGQFNREGAAGVWKICPVLKGVGFTVILISFYVGFFYNVIIAWALHYFFSSFTMDLPWIHCNNTWNSPNCSDAHSSNSSDGLGLNDTFGTTPAAEYFERGVLHLHQSRGIDDLGPPRWQLTACLVLVIVLLYFSLWKGVKTSGKVVWITATMPYVVLTALLLRGVTLPGAMDGIRAYLSVDFYRLCEASVWIDAATQVCFSLGVGFGVLIAFSSYNKFTNNCYRDAIITTSINSLTSFSSGFVVFSFLGYMAQKHNVPIRDVATDGPGLIFIIYPEAIATLPLSSAWAAVFFLMLLTLGIDSAMGGMESVITGLVDEFQLLHRHRELFTLGIVLATFLLSLFCVTNGGIYVFTLLDHFAAGTSILFGVLIEAIGVAWFYGVQQFSDDIKQMTGQRPNLYWRLCWKLVSPCFLLYVVVVSIVTFRPPHYGAYIFPDWANALGWIIATSSMAMVPIYATYKFCSLPGSFREKLAYAITPEKDRQLVDRGEVRQFTLRHWLLV | – | ~3
